The values below come from paper PMC11882521, “Cofactor engineering for improved production of 2,4-dihydroxybutyric acid via the synthetic homoserine pathway” (Frontiers in Bioengineering and Biotechnology, 2025).

In data set [1] the target is T1, Ec.Mdh^5Q D34G (OHB reductase, engineered E. coli malate dehydrogenase) (Escherichia coli, UniProt P61889, I12V/D34G/R81A/M85Q/D86S/G179D).
T1 construct: N-terminally 6x-His-tagged
As to the kind of experiment: specific activity of purified enzyme at […] OHB and […] NADH. In kind it is biochemical.

Data set [2] has as its target T1, Ec.Mdh^5Q D34G (OHB reductase, engineered E. coli malate dehydrogenase). As to the kind of experiment: specific activity of purified enzyme at […] OHB and […] NADPH. In kind it is biochemical.
Data set [3] concerns T2, NC(=O)C1=CN([C@@H]2O[C@H](COP(=O)(O)OP(=O)(O)OC[C@H]3O[C@@H](n4cnc5c(N)ncnc54)[C@H](OP(=O)(O)O)[C@@H]3O)[C@@H](O)[C@H]2O)C=CC1.
T2 construct: N-terminally 6x-His-tagged
Kind of data set: purified protein. In kind it is biochemical, Escherichia coli. Particulars: varied: cofactor.

A further data set deals with T3, O=C(O)C(=O)CCO.
T3 construct: N-terminally 6x-His-tagged
As to the kind of experiment: purified protein. In kind it is biochemical, Escherichia coli.

Data set [4] concerns T4, NC(=O)C1=CN([C@@H]2O[C@H](COP(=O)(O)OP(=O)(O)OC[C@H]3O[C@@H](n4cnc5c(N)ncnc54)[C@H](O)[C@@H]3O)[C@@H](O)[C@H]2O)C=CC1.
T4 construct: N-terminally 6x-His-tagged
Kind of data set: purified protein. In kind it is biochemical, Escherichia coli. Particulars: co-enzyme binding site, varied: cofactor.

The mark [5] stands for this setting: co-enzyme binding site, Asp34 disfavours the […]'-phosphate group.
Where [6] appears, read: Asp34 confers cofactor specificity.
The mark [7] stands for this setting: […]'-phosphate group near positions […] and […] (selectivity control loop, cofactor binding motif of the Rossmann fold).
Setting [8] is: NADPH uncompetitive substrate inhibition (Ki =[…]).

T1 sequence (P61889 whole entry I12V/D34G/R81A/M85Q/D86S/G179D): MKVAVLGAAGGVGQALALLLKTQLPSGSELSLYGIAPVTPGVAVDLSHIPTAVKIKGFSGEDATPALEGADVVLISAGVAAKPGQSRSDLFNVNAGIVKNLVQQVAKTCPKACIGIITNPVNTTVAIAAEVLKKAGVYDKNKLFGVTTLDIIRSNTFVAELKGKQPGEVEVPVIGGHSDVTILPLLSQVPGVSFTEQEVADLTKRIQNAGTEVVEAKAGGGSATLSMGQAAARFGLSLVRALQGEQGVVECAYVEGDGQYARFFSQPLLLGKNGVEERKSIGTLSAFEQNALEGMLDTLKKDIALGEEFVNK

In the case of `NC(=O)C1=CN([C@@H]2O[C@H](COP(=O)(O)OP(=O)(O)OC[C@H]3O[C@@H](n4cnc5c(N)ncnc54)[C@H](O)[C@@H]3O)[C@@H](O)[C@H]2O)C=CC1` [NADH], the “specific activity of purified enzyme at 2 mM OHB and 0.25 mM NADH” value in data set [1] was 23 ± 2 U mg^−1 (specific activity).
As for `NC(=O)C1=CN([C@@H]2O[C@H](COP(=O)(O)OP(=O)(O)OC[C@H]3O[C@@H](n4cnc5c(N)ncnc54)[C@H](OP(=O)(O)O)[C@@H]3O)[C@@H](O)[C@H]2O)C=CC1` [NADPH], the “specific activity of purified enzyme at 2 mM OHB and 0.25 mM NADPH” value in data set [2] was 35 ± 3 U mg^−1 (specific activity).
For the compound “Ec.Mdh^5Q (OHB reductase, engineered E. coli malate dehydrogenase) (Escherichia coli K-12; D86S/G179D/I12V/M85Q/R81A)”, in data set [3] (setting [5]), the Michaelis constant (Km) amounted to 320 µM, the Vmax was determined as 5.56 µmol/min/mg, the turnover number (kcat) was found to be 2.99 ± 0.35 s⁻¹ and the kcat/Km was 9500 ± 50 M⁻¹ s⁻¹. For the same compound, in the data set with O=C(O)C(=O)CCO (NADH), the Michaelis-Menten constant (Km) came out at 1840 µM, the Vmax was 138 µmol/min/mg, the kcat stood at 74.9 ± 5.63 s⁻¹ and the kcat/Km is 44900 ± 15200 M⁻¹ s⁻¹. In data set [4] (setting [6]), the Km amounted to 40 µM, the maximum rate (Vmax) was 67.7 µmol/min/mg, the kcat was 36.5 ± 1.68 s⁻¹ and the kcat/Km came out at 1.03e+06 ± 67500 M⁻¹ s⁻¹.
“Ec.Mdh^7Q (OHB reductase, engineered E. coli malate dehydrogenase) (Escherichia coli K-12; D34G/D86S/G179D/I12V/I35R/M85Q/R81A)”: in data set [3] (setting [7]), the Km amounted to 100 µM, the Vmax is 119 µmol/min/mg, the kcat stood at 64 ± 9.97 s⁻¹ and the kcat/Km is 645000 ± 76200 M⁻¹ s⁻¹. Besides, in the data set with O=C(O)C(=O)CCO (setting [8]), the Km came out at 1080 µM, the maximum rate (Vmax) was determined as 155 µmol/min/mg, the catalytic constant (kcat) amounted to 83.4 ± 3.4 s⁻¹ and the kcat/Km is 80300 ± 17300 M⁻¹ s⁻¹. In data set [4], the Michaelis-Menten constant (Km) is 270 µM, the Vmax was determined as 20 µmol/min/mg, the kcat came out at 10.8 ± 1.07 s⁻¹ and the kcat/Km worked out at 40400 ± 1710 M⁻¹ s⁻¹.
